Biological target: T1, IL-1β (UniProt P01584 117-269)
T1 construct: Antigen immobilised on the Biacore chip
Test: Biacore, periplasmic extract

Binder | binding result | fold difference in affinity vs original
XPA23 light chain D92R (Fab, V domains shown) VH: EVQLLESGGGLVQPGGSLRLSCAASGFTFSKYFMFWVRQAPGKGLEWVSVISPSGGMTRYADSVKGRFTISRDNSKNTLYLQMNSLRAEDTAVYYCARVGYGGNSDYWGQGTLVTVSS VL: DIQMTQSPSSVSASVGDRLTIICRASQDINRWLAWYQQTPGNAPKLLIHSATSLQSGVPSRFSGSGSGTDFTLTINSLQPEDFATYYCQQARSFPLTFGGGTKVEIK | no binding | –
XPA23 light chain H49A (Fab, V domains shown) VH: EVQLLESGGGLVQPGGSLRLSCAASGFTFSKYFMFWVRQAPGKGLEWVSVISPSGGMTRYADSVKGRFTISRDNSKNTLYLQMNSLRAEDTAVYYCARVGYGGNSDYWGQGTLVTVSS VL: DIQMTQSPSSVSASVGDRLTIICRASQDINRWLAWYQQTPGNAPKLLIASATSLQSGVPSRFSGSGSGTDFTLTINSLQPEDFATYYCQQADSFPLTFGGGTKVEIK | – | 0.23 fold
XPA23 light chain F94H (Fab, V domains shown) VH: EVQLLESGGGLVQPGGSLRLSCAASGFTFSKYFMFWVRQAPGKGLEWVSVISPSGGMTRYADSVKGRFTISRDNSKNTLYLQMNSLRAEDTAVYYCARVGYGGNSDYWGQGTLVTVSS VL: DIQMTQSPSSVSASVGDRLTIICRASQDINRWLAWYQQTPGNAPKLLIHSATSLQSGVPSRFSGSGSGTDFTLTINSLQPEDFATYYCQQADSHPLTFGGGTKVEIK | no binding | –
XPA23 light chain D92Y (Fab, V domains shown) VH: EVQLLESGGGLVQPGGSLRLSCAASGFTFSKYFMFWVRQAPGKGLEWVSVISPSGGMTRYADSVKGRFTISRDNSKNTLYLQMNSLRAEDTAVYYCARVGYGGNSDYWGQGTLVTVSS VL: DIQMTQSPSSVSASVGDRLTIICRASQDINRWLAWYQQTPGNAPKLLIHSATSLQSGVPSRFSGSGSGTDFTLTINSLQPEDFATYYCQQAYSFPLTFGGGTKVEIK | no binding | –
XPA23 light chain F94Q (Fab, V domains shown) VH: EVQLLESGGGLVQPGGSLRLSCAASGFTFSKYFMFWVRQAPGKGLEWVSVISPSGGMTRYADSVKGRFTISRDNSKNTLYLQMNSLRAEDTAVYYCARVGYGGNSDYWGQGTLVTVSS VL: DIQMTQSPSSVSASVGDRLTIICRASQDINRWLAWYQQTPGNAPKLLIHSATSLQSGVPSRFSGSGSGTDFTLTINSLQPEDFATYYCQQADSQPLTFGGGTKVEIK | no binding | –
XPA23 light chain F94D (Fab, V domains shown) VH: EVQLLESGGGLVQPGGSLRLSCAASGFTFSKYFMFWVRQAPGKGLEWVSVISPSGGMTRYADSVKGRFTISRDNSKNTLYLQMNSLRAEDTAVYYCARVGYGGNSDYWGQGTLVTVSS VL: DIQMTQSPSSVSASVGDRLTIICRASQDINRWLAWYQQTPGNAPKLLIHSATSLQSGVPSRFSGSGSGTDFTLTINSLQPEDFATYYCQQADSDPLTFGGGTKVEIK | no binding | –
XPA23 light chain F94K (Fab, V domains shown) VH: EVQLLESGGGLVQPGGSLRLSCAASGFTFSKYFMFWVRQAPGKGLEWVSVISPSGGMTRYADSVKGRFTISRDNSKNTLYLQMNSLRAEDTAVYYCARVGYGGNSDYWGQGTLVTVSS VL: DIQMTQSPSSVSASVGDRLTIICRASQDINRWLAWYQQTPGNAPKLLIHSATSLQSGVPSRFSGSGSGTDFTLTINSLQPEDFATYYCQQADSKPLTFGGGTKVEIK | no binding | –
XPA23 light chain F94W (Fab, V domains shown) VH: EVQLLESGGGLVQPGGSLRLSCAASGFTFSKYFMFWVRQAPGKGLEWVSVISPSGGMTRYADSVKGRFTISRDNSKNTLYLQMNSLRAEDTAVYYCARVGYGGNSDYWGQGTLVTVSS VL: DIQMTQSPSSVSASVGDRLTIICRASQDINRWLAWYQQTPGNAPKLLIHSATSLQSGVPSRFSGSGSGTDFTLTINSLQPEDFATYYCQQADSWPLTFGGGTKVEIK | no binding | –
XPA23 light chain D92W (Fab, V domains shown) VH: EVQLLESGGGLVQPGGSLRLSCAASGFTFSKYFMFWVRQAPGKGLEWVSVISPSGGMTRYADSVKGRFTISRDNSKNTLYLQMNSLRAEDTAVYYCARVGYGGNSDYWGQGTLVTVSS VL: DIQMTQSPSSVSASVGDRLTIICRASQDINRWLAWYQQTPGNAPKLLIHSATSLQSGVPSRFSGSGSGTDFTLTINSLQPEDFATYYCQQAWSFPLTFGGGTKVEIK | – | 0.12 fold
XPA23 light chain F94S (Fab, V domains shown) VH: EVQLLESGGGLVQPGGSLRLSCAASGFTFSKYFMFWVRQAPGKGLEWVSVISPSGGMTRYADSVKGRFTISRDNSKNTLYLQMNSLRAEDTAVYYCARVGYGGNSDYWGQGTLVTVSS VL: DIQMTQSPSSVSASVGDRLTIICRASQDINRWLAWYQQTPGNAPKLLIHSATSLQSGVPSRFSGSGSGTDFTLTINSLQPEDFATYYCQQADSSPLTFGGGTKVEIK | no binding | –
XPA23 light chain F94Y (Fab, V domains shown) VH: EVQLLESGGGLVQPGGSLRLSCAASGFTFSKYFMFWVRQAPGKGLEWVSVISPSGGMTRYADSVKGRFTISRDNSKNTLYLQMNSLRAEDTAVYYCARVGYGGNSDYWGQGTLVTVSS VL: DIQMTQSPSSVSASVGDRLTIICRASQDINRWLAWYQQTPGNAPKLLIHSATSLQSGVPSRFSGSGSGTDFTLTINSLQPEDFATYYCQQADSYPLTFGGGTKVEIK | no binding | –
XPA23 light chain D92S (Fab, V domains shown) VH: EVQLLESGGGLVQPGGSLRLSCAASGFTFSKYFMFWVRQAPGKGLEWVSVISPSGGMTRYADSVKGRFTISRDNSKNTLYLQMNSLRAEDTAVYYCARVGYGGNSDYWGQGTLVTVSS VL: DIQMTQSPSSVSASVGDRLTIICRASQDINRWLAWYQQTPGNAPKLLIHSATSLQSGVPSRFSGSGSGTDFTLTINSLQPEDFATYYCQQASSFPLTFGGGTKVEIK | – | 6.59 fold
XPA23 light chain F94R (Fab, V domains shown) VH: EVQLLESGGGLVQPGGSLRLSCAASGFTFSKYFMFWVRQAPGKGLEWVSVISPSGGMTRYADSVKGRFTISRDNSKNTLYLQMNSLRAEDTAVYYCARVGYGGNSDYWGQGTLVTVSS VL: DIQMTQSPSSVSASVGDRLTIICRASQDINRWLAWYQQTPGNAPKLLIHSATSLQSGVPSRFSGSGSGTDFTLTINSLQPEDFATYYCQQADSRPLTFGGGTKVEIK | no binding | –
XPA23 light chain F94E (Fab, V domains shown) VH: EVQLLESGGGLVQPGGSLRLSCAASGFTFSKYFMFWVRQAPGKGLEWVSVISPSGGMTRYADSVKGRFTISRDNSKNTLYLQMNSLRAEDTAVYYCARVGYGGNSDYWGQGTLVTVSS VL: DIQMTQSPSSVSASVGDRLTIICRASQDINRWLAWYQQTPGNAPKLLIHSATSLQSGVPSRFSGSGSGTDFTLTINSLQPEDFATYYCQQADSEPLTFGGGTKVEIK | no binding | –
XPA23 light chain F94N (Fab, V domains shown) VH: EVQLLESGGGLVQPGGSLRLSCAASGFTFSKYFMFWVRQAPGKGLEWVSVISPSGGMTRYADSVKGRFTISRDNSKNTLYLQMNSLRAEDTAVYYCARVGYGGNSDYWGQGTLVTVSS VL: DIQMTQSPSSVSASVGDRLTIICRASQDINRWLAWYQQTPGNAPKLLIHSATSLQSGVPSRFSGSGSGTDFTLTINSLQPEDFATYYCQQADSNPLTFGGGTKVEIK | no binding | –
